B1: LINE1-mini (parent)
chain: GGCAGAGCUCAACACAGCGUGGCAAAGUGGCUGUGGCUAGACUGCC

Variants of: B1
Test: self-cleavage, relative activity (ratio to wild type); higher = more cleavage; in vitro, sequencing; the parent is a self-cleaving ribozyme

Going from C23A C31A to G5A G33U, the self-cleavage falls from 0.26 to 0.05.

Going from G44C C45G to G21A G22A, the self-cleavage rises from 0.21 to 1.3.

Compared with C15A G35C, A16C G36C is lower in self-cleavage: 0.05 for the first, 0.04 for the second.

Compared with U38C C45G, G7A C8U is lower in self-cleavage: 0.47 for the first, 0.43 for the second.

First: U9A C46A
Second: U9C G27C
The self-cleavage of the first is higher: 0.17 for the first, 0.03 for the second.

C15G U34C and C37G C45U are the same in self-cleavage: 0.03 for the first, 0.03 for the second.

Compared with A4G A26U, C13U A14C is lower in self-cleavage: 0.39 for the first, 0.09 for the second.

First: G5A U34G
Second: U32C A41G
The self-cleavage of the first is lower: 0.04 for the first, 0.07 for the second.

Going from A26C U28G to C15A G40C, the self-cleavage falls from 0.66 to 0.07.

Compared with G22C A24U, A14G G21U is higher in self-cleavage: 0.52 for the first, 0.79 for the second.

Compared with A14G A39C, A6U C42A is lower in self-cleavage: 0.39 for the first, 0.17 for the second.

Going from A4U A25G to G7A G44A, the self-cleavage rises from 0.08 to 0.19.

First: C3G C8G
Second: G29C C46A
The self-cleavage of the first is lower: 0.08 for the first, 0.68 for the second.

Compared with A26U C46G, C15G U38C is lower in self-cleavage: 1.18 for the first, 0.03 for the second.

Compared with C10G A39C, G7A U20A is higher in self-cleavage: 0.02 for the first, 0.12 for the second.

Compared with C15G G21U, A6C G7U is higher in self-cleavage: 0.07 for the first, 0.1 for the second.

First: C10A A14C
Second: A14G U43C
The self-cleavage of the first is lower: 0.02 for the first, 0.06 for the second.

First: G33A G35U
Second: G21A C31U
The self-cleavage of the first is lower: 0.1 for the first, 0.63 for the second.

Going from G17A C31U to G19A G35C, the self-cleavage falls from 0.35 to 0.21.

First: G2C G27A
Second: U34C C37U
The self-cleavage of the first is higher: 0.13 for the first, 0.05 for the second.

Compared with A6U A14G, U9C C10U is lower in self-cleavage: 0.1 for the first, 0.04 for the second.

Compared with G1A A12U, A6C C23A is higher in self-cleavage: 0.19 for the first, 0.5 for the second.

Going from G2C G7A to G33U A39G, the self-cleavage rises from 0.06 to 0.12.

Going from A12C G21U to G17A C42G, the self-cleavage rises from 0.03 to 0.12.

First: C8A A12U
Second: G33A U34G
The self-cleavage of the first is higher: 0.23 for the first, 0.04 for the second.

First: A24G G35A
Second: G21A U32A
The self-cleavage of the first is higher: 0.12 for the first, 0.08 for the second.

Going from G7U G29A to G5U A16C, the self-cleavage falls from 0.06 to 0.03.

Compared with G27U G33U, U34C G35A is lower in self-cleavage: 0.07 for the first, 0.05 for the second.

First: G7A U28G
Second: G7U G19A
The self-cleavage of the first is higher: 0.16 for the first, 0.07 for the second.

First: C3A G17C
Second: G7A G30U
The self-cleavage of the first is higher: 0.31 for the first, 0.24 for the second.

Going from G7A to C8U A16G, the self-cleavage falls from 0.2 to 0.16.

Compared with A4C G30U, A16C U38G is lower in self-cleavage: 0.19 for the first, 0.03 for the second.

Compared with C23A C46A, U43A G44A is lower in self-cleavage: 0.98 for the first, 0.1 for the second.

Going from G21A U43C to U20C U32G, the self-cleavage falls from 0.18 to 0.04.

Compared with U20C U32C, G2A U20A is higher in self-cleavage: 0.05 for the first, 0.88 for the second.

Going from C3A U9G to G21A U38C, the self-cleavage rises from 0.57 to 1.12.

Going from G5U A39G to C3A A25C, the self-cleavage rises from 0.04 to 0.41.

Going from U9C G33C to G21C G30A, the self-cleavage rises from 0.03 to 1.86.

Compared with U20G G21A, C18U G19C is lower in self-cleavage: 0.69 for the first, 0.56 for the second.

Compared with C8G U28C, A24U U32A is lower in self-cleavage: 0.46 for the first, 0.07 for the second.

Going from G33C C45G to G1C C15U, the self-cleavage rises from 0.06 to 0.07.

Compared with G1U G30U, C23U G44U is lower in self-cleavage: 0.59 for the first, 0.32 for the second.

First: C8G U43G
Second: G22A A41U
The self-cleavage of the first is higher: 0.88 for the first, 0.66 for the second.

Going from A12G A41G to A14C G17A, the self-cleavage rises from 0.03 to 0.08.

Compared with G19A A25C, G27C G36A is lower in self-cleavage: 1.21 for the first, 0.35 for the second.

First: G5U U9A
Second: U9G G27U
The self-cleavage of the first is higher: 0.36 for the first, 0.06 for the second.

Compared with G21C C42U, C10U A26G is higher in self-cleavage: 0.36 for the first, 0.4 for the second.

Compared with G2A C42G, G36C G44C is lower in self-cleavage: 0.34 for the first, 0.11 for the second.

First: G2A C46U
Second: G5C U20G
The self-cleavage of the first is higher: 0.87 for the first, 0.06 for the second.

G7C G29U and G21U G35C are the same in self-cleavage: 0.13 for the first, 0.13 for the second.

Going from G40U A41G to G5A A26G, the self-cleavage rises from 0.09 to 0.1.

Compared with G22C A41G, G5C C8U is lower in self-cleavage: 0.23 for the first, 0.11 for the second.

Compared with C3A G33C, G29C G35A is higher in self-cleavage: 0.1 for the first, 0.13 for the second.

First: A6C G29C
Second: A12G G36C
The self-cleavage of the first is higher: 0.36 for the first, 0.04 for the second.

Going from A25G G30C to U9A C45U, the self-cleavage falls from 1.19 to 0.28.

First: C8A
Second: C3G U34G
The self-cleavage of the first is higher: 0.29 for the first, 0.08 for the second.

Going from A4G G17A to G21C G33C, the self-cleavage falls from 0.06 to 0.05.

Going from G21C G33U to C31G C37A, the self-cleavage falls from 0.11 to 0.09.

First: G40C U43G
Second: C10A G21A
The self-cleavage of the first is higher: 0.41 for the first, 0.08 for the second.

Going from C10A G21C to C31U C42U, the self-cleavage rises from 0.04 to 0.09.

Compared with C3G G40U, U9G G44C is lower in self-cleavage: 0.13 for the first, 0.03 for the second.

Going from U9G G44U to G2C A41G, the self-cleavage rises from 0.08 to 0.17.

First: C37G G44A
Second: C37U G40A
The self-cleavage of the first is lower: 0.04 for the first, 0.14 for the second.

Going from C23A G40C to C37A U43A, the self-cleavage falls from 0.15 to 0.13.

Compared with A11U A26C, C18G G21C is higher in self-cleavage: 0.16 for the first, 0.62 for the second.

First: G19C U38C
Second: G21C G29A
The self-cleavage of the first is lower: 0.28 for the first, 0.5 for the second.

First: G17A G44C
Second: A6U A26U
The self-cleavage of the first is lower: 0.05 for the first, 0.85 for the second.

First: C15A A26C
Second: U32A C42U
The self-cleavage of the first is higher: 0.08 for the first, 0.05 for the second.

First: G33A C37U
Second: G30U C37G
The self-cleavage of the first is lower: 0.04 for the first, 0.05 for the second.

Compared with A25G C31G, G27U C31G is lower in self-cleavage: 0.27 for the first, 0.21 for the second.

C3U A16U and A4C A16G are the same in self-cleavage: 0.09 for the first, 0.09 for the second.

Compared with G19A U20A, G7U C37G is lower in self-cleavage: 0.51 for the first, 0.01 for the second.

Compared with U20G A24U, G17C is higher in self-cleavage: 0.54 for the first, 0.79 for the second.

Going from A4U A16U to A12U C45G, the self-cleavage falls from 0.15 to 0.08.

Compared with A12G G27A, A12G C15A is lower in self-cleavage: 0.03 for the first, 0.02 for the second.

First: G1A A16U
Second: C23G
The self-cleavage of the first is lower: 0.1 for the first, 0.84 for the second.

Compared with G22A A26G, G19U G21C is lower in self-cleavage: 1.31 for the first, 0.81 for the second.

G5A U32G and A6G A16C are the same in self-cleavage: 0.04 for the first, 0.04 for the second.

Going from U34C A41C to C31G A41G, the self-cleavage falls from 0.05 to 0.03.

Going from A14G C31G to C10G A41C, the self-cleavage falls from 0.04 to 0.01.

Going from U28A G44C to U20C C37U, the self-cleavage falls from 0.62 to 0.06.

Compared with A12C G19U, A12U A25C is higher in self-cleavage: 0.03 for the first, 0.22 for the second.

Compared with A12G C13G, C8U G27U is higher in self-cleavage: 0.04 for the first, 0.14 for the second.

Work on A39U A41C yielded a self-cleavage of 0.13.

From the RNAGym collection of RNA variant scans (doi:10.7554/elife.90254)
